From paper PMC5540999, “In vivo monitoring of the recruitment and activation of AP-1 by Arf1” (Scientific Reports, 2017)

Biological target: T1, β1-RlucII (human, UniProt Q10567 1-949)
T1 construct: β1 subunit of AP-1, human; amplified by PCR minus the stop codon; also called β-RlucII; source: HEK293T, transfected, in live cells (BRET), cell fractions and lysate (co-IP); not shown: RlucII, C-terminal, kept
T1 sequence (looked up): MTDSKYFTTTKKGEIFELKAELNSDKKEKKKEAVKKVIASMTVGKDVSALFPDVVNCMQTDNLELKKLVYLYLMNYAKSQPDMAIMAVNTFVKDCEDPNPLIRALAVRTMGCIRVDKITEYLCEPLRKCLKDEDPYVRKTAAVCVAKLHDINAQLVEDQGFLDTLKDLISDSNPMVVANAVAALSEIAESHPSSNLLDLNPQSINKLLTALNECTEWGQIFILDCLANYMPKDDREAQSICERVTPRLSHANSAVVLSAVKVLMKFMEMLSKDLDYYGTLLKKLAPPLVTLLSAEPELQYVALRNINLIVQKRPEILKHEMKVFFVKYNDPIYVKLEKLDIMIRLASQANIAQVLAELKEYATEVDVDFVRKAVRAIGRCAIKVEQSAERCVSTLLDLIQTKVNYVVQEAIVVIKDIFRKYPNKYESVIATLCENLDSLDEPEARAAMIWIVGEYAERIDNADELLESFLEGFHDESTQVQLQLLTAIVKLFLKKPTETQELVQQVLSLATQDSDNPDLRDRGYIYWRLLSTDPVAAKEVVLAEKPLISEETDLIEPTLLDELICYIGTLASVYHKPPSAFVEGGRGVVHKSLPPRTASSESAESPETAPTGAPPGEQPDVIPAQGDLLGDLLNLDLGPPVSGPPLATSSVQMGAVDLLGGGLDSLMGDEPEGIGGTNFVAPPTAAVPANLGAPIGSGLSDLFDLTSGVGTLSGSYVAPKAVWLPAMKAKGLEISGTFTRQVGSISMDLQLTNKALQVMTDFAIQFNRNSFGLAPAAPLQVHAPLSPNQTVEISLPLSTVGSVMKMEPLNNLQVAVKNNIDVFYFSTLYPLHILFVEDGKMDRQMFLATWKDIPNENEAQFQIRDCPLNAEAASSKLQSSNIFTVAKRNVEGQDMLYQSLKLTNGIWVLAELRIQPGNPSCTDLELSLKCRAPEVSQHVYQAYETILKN
Assay: FRET or BRET; BRET^2 in live HEK293T cells (γ/µ1 also in Arf1-KO cells; some panels with Brefeldin A 10 µM 15 min or co-expressed Arf1-HA forms): low constant amount of the RlucII donor, increasing amounts of the GFP10 acceptor; coelenterazine 400a 5 µM; BRET50 and BRETmax from a one-site saturation fit
Details: partners not purified

B1: β1-GFP10 (AP-1 β1 subunit, wild type) (natural protein, human, UniProt Q10567 1-949, looked up)
chain: T1 sequence (looked up)
notes: β1 subunit of the adaptor protein complex 1 (AP-1), human; amplified by PCR minus the stop codon; also called β-GFP10; full-length β1-GFP10; source: HEK293T, transfected, in live cells (BRET), cell fractions and lysate (co-IP); not shown: GFP10, C-terminal, kept
  fold decrease of BRET50 in the presence of Arf1^Q71L-HA: ~4 fold
